According to US20210393713A1:
pKd: −log10 of the molar value.

Molecular target: Twin-Strep-tagged LY6A, C57BL/6J variant (GPI-anchor truncated, soluble) (mouse (C57BL/6J)) (UniProt P05533)
Test: ELISA, AAV particles on plate-bound Twin-Strep-tagged LY6A; apparent Kd from a 1:1 fit

Chain of Twin-Strep-tagged LY6A, C57BL/6J variant (GPI-anchor truncated, soluble) (mouse (C57BL/6J)) (P05533 27-111, change not shown): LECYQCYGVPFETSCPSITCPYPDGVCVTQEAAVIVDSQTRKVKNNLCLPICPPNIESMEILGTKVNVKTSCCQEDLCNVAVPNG

## AAV-PHP.B capsid (AAV9 variant with the TLAVPFK insert)
  pKd: 10.15
